Results on one protein are retold here after patent US20230090502.

The series deals with Uncleaved SARS-CoV-2 3CLpro (N-terminal 6xHIS-tag followed by TEV-protease cleavage site).

B1: TEV-protease (New England Biolabs, includes a HIS-tag) (protein)
chain: GESLFKGPRDYNPISSTICHLTNESDGHTTSLYGIGFGPFIITNKHLFRRNNGTLLVQSLHGVFKVKNTTTLQQHLIDGRDMIIIRMPKDFPPFPQKLKFREPQREERICLVTTNFQTKSMSSMVSDTSCTFPSSDGIFWKHWIQTKDGQCGSPLVSTRDGFIVGIHSASNFTNTNNYFTSVPKNFMELLTNQEAQQWVSGWRLNADSVLWGGHKVFMSKPEEPFQPVKEATQLMNELVYSQ
Turning to B1, the “cleavage of the HIS-tag, SDS-PAGE” value is listed as “Cleavage of the 3CLpro was successful”.
